Reference: publication PMC11096365, “Cryo-EM structures of the human Elongator complex at work” (Nature Communications, 2024)
Values belong to the molecule of their own block, whether it stands above or below them.

Tests used:
TK40 = assay: MST; settings: complex; chains chain;chain;chain
H3 = assay: MST; settings: complex; chains chain;chain;chain
[1] = biological target: the molecule itself; assay: cryo-EM structure; co-expressed, co-purified ELP123 (0.6 g/l) without or with tRNA (3.3 µM), acetyl-CoA/DCA/ECA (0.5 mM) and SAM (1 mM); 20 mM HEPES pH 7.5, 100 mM NaCl, 2 mM MgCl2, 2 mM DTT; single-particle analysis
[2] = biological target: T1, human ELP3 with C-terminal Twin-Strep-Tag (human, UniProt Q9H9T3 1-547); assay: co-purification with SDS-PAGE; ELP1, ELP2 and ELP3-Twin-Strep co-expressed in insect cells; StrepTrap, heparin and Superose 6 columns; SDS-PAGE of the purified subcomplex; settings: partners not purified
T1 construct: ELP3, human, codon-optimized open reading frame, UniProt Q9H9T3; with the tag 65 kDa as printed; Same material as the ELP3 chain of m4; carries an iron-sulfur cluster in all structures; also called ELP3 with Twin-Strep-Tag (TST); source: SuperSf9-3 insect cells, co-expressed with ELP1 and ELP2 (pBig1a), purified as ELP123 (StrepTrap, heparin, Superose 6); not shown: Twin-Strep-Tag, C-terminal, …
T1 sequence (looked up): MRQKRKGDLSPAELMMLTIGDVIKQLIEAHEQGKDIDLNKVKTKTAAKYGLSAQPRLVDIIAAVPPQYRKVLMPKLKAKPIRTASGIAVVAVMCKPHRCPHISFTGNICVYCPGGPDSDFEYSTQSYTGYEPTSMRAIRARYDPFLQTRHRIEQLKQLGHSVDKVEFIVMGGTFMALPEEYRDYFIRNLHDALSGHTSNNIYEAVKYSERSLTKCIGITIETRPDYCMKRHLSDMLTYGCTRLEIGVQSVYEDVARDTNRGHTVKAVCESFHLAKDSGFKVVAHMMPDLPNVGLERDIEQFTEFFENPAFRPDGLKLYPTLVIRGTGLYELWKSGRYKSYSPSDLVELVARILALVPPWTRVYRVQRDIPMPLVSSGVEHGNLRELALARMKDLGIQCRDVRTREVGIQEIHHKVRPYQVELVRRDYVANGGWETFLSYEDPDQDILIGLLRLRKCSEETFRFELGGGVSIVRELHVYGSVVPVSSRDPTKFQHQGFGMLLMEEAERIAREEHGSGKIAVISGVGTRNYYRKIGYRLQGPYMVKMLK

ELP1;ELP2;ELP3 wild type = ELP1;ELP2;ELP3 wild type (Homo sapiens;Homo sapiens;Homo sapiens, UniProt O95163;Q6IA86;Q9H9T3 1-1332;1-826;1-547, ||); assay: MST; MST: 20 mM HEPES pH 7.5, 100 mM NaCl, 5 mM DTT, 0.05% Tween 20; incubated at 4 C 30 min, measured at 25 C; Cy5-tRNA 14 or 30 nM. Cryo-EM: 20 mM HEPES pH 7.5, 100 mM NaCl, 2 mM MgCl2, 2 mM DTT; settings: protein: recombinant;recombinant;recombinant, tags: ;;C-terminal Twin-Strep-Tag, chain copies: 2;2;2, label: internal Cy5 (5% Cy5-CTP), tRNA fold

Kd (TK40): > 10 µM
Kd (H3): > 10 µM
Molecule: human ELP123 subcomplex (ELP1, ELP2, ELP3), O95163 1-1332; Q6IA86 1-826; Q9H9T3 1-547

stoichiometry N [2]: 1
B1: human ELP1 (natural protein, UniProt O95163 1-1332, looked up)
chain: MRNLKLFRTLEFRDIQGPGNPQCFSLRTEQGTVLIGSEHGLIEVDPVSREVKNEVSLVAEGFLPEDGSGRIVGVQDLLDQESVCVATASGDVILCSLSTQQLECVGSVASGISVMSWSPDQELVLLATGQQTLIMMTKDFEPILEQQIHQDDFGESKFITVGWGRKETQFHGSEGRQAAFQMQMHESALPWDDHRPQVTWRGDGQFFAVSVVCPETGARKVRVWNREFALQSTSEPVAGLGPALAWKPSGSLIASTQDKPNQQDIVFFEKNGLLHGHFTLPFLKDEVKVNDLLWNADSSVLAVWLEDLQREESSIPKTCVQLWTVGNYHWYLKQSLSFSTCGKSKIVSLMWDPVTPYRLHVLCQGWHYLAYDWHWTTDRSVGDNSSDLSNVAVIDGNRVLVTVFRQTVVPPPMCTYQLLFPHPVNQVTFLAHPQKSNDLAVLDASNQISVYKCGDCPSADPTVKLGAVGGSGFKVCLRTPHLEKRYKIQFENNEDQDVNPLKLGLLTWIEEDVFLAVSHSEFSPRSVIHHLTAASSEMDEEHGQLNVSSSAAVDGVIISLCCNSKTKSVVLQLADGQIFKYLWESPSLAIKPWKNSGGFPVRFPYPCTQTELAMIGEEECVLGLTDRCRFFINDIEVASNITSFAVYDEFLLLTTHSHTCQCFCLRDASFKTLQAGLSSNHVSHGEVLRKVERGSRIVTVVPQDTKLVLQMPRGNLEVVHHRALVLAQIRKWLDKLMFKEAFECMRKLRINLNLIYDHNPKVFLGNVETFIKQIDSVNHINLFFTELKEEDVTKTMYPAPVTSSVYLSRDPDGNKIDLVCDAMRAVMESINPHKYCLSILTSHVKKTTPELEIVLQKVHELQGNAPSDPDAVSAEEALKYLLHLVDVNELYDHSLGTYDFDLVLMVAEKSQKDPKEYLPFLNTLKKMETNYQRFTIDKYLKRYEKAIGHLSKCGPEYFPECLNLIKDKNLYNEALKLYSPSSQQYQDISIAYGEHLMQEHMYEPAGLMFARCGAHEKALSAFLTCGNWKQALCVAAQLNFTKDQLVGLGRTLAGKLVEQRKHIDAAMVLEECAQDYEEAVLLLLEGAAWEEALRLVYKYNRLDIIETNVKPSILEAQKNYMAFLDSQTATFSRHKKRLLVVRELKEQAQQAGLDDEVPHGQESDLFSETSSVVSGSEMSGKYSHSNSRISARSSKNRRKAERKKHSLKEGSPLEDLALLEALSEVVQNTENLKDEVYHILKVLFLFEFDEQGRELQKAFEDTLQLMERSLPEIWTLTYQQNSATPVLGPNSTANSIMASYQQQKTSVPVLDAELFIPPKINRRTQWKLSLLD
notes: ELP1, human, codon-optimized open reading frame, UniProt O95163; predicted MW printed as 148 kDa; Same material as the ELP1 chain of m4; The ORF was first cloned into pFastBac1 HT A; source: SuperSf9-3 insect cells, co-expressed with ELP2 and ELP3 (pBig1a), purified as ELP123 (StrepTrap, heparin, Superose 6)
binding result [1]: binds

stoichiometry N [2]: 1
B2: human ELP2 (natural protein, UniProt Q6IA86 1-826, looked up)
chain: MVAPVLETSHVFCCPNRVRGVLNWSSGPRGLLAFGTSCSVVLYDPLKRVVVTNLNGHTARVNCIQWICKQDGSPSTELVSGGSDNQVIHWEIEDNQLLKAVHLQGHEGPVYAVHAVYQRRTSDPALCTLIVSAAADSAVRLWSKKGPEVMCLQTLNFGNGFALALCLSFLPNTDVPILACGNDDCRIHIFAQQNDQFQKVLSLCGHEDWIRGVEWAAFGRDLFLASCSQDCLIRIWKLYIKSTSLETQDDDNIRLKENTFTIENESVKIAFAVTLETVLAGHENWVNAVHWQPVFYKDGVLQQPVRLLSASMDKTMILWAPDEESGVWLEQVRVGEVGGNTLGFYDCQFNEDGSMIIAHAFHGALHLWKQNTVNPREWTPEIVISGHFDGVQDLVWDPEGEFIITVGTDQTTRLFAPWKRKDQSQVTWHEIARPQIHGYDLKCLAMINRFQFVSGADEKVLRVFSAPRNFVENFCAITGQSLNHVLCNQDSDLPEGATVPALGLSNKAVFQGDIASQPSDEEELLTSTGFEYQQVAFQPSILTEPPTEDHLLQNTLWPEVQKLYGHGYEIFCVTCNSSKTLLASACKAAKKEHAAIILWNTTSWKQVQNLVFHSLTVTQMAFSPNEKFLLAVSRDRTWSLWKKQDTISPEFEPVFSLFAFTNKITSVHSRIIWSCDWSPDSKYFFTGSRDKKVVVWGECDSTDDCIEHNIGPCSSVLDVGGAVTAVSVCPVLHPSQRYVVAVGLECGKICLYTWKKTDQVPEINDWTHCVETSQSQSHTLAIRKLCWKNCSGKTEQKEAEGAEWLHFASCGEDHTVKIHRVNKCAL
notes: ELP2, human, codon-optimized open reading frame; predicted MW printed as 93 kDa; Same material as the ELP2 chain of m4; The ORF was first cloned into pFastBac1 HT A; source: SuperSf9-3 insect cells, co-expressed with ELP1 and ELP3 (pBig1a), purified as ELP123 (StrepTrap, heparin, Superose 6)

B3: tRNAGln U33C34UG (structured_RNA)
RNA: GGCCCCAUGGUGUAAUGGUUAGCACUCUGGACUCUGAAUCCAGCGAUCCGAGUUCAAAUCUCGGUGGGACCUCCA
binding result (ELP1;ELP2;ELP3 wild type): binds

B4: tRNAGln C33U34UG (structured_RNA)
RNA: GGCCCCAUGGUGUAAUGGUUAGCACUCUGGACCUUGAAUCCAGCGAUCCGAGUUCAAAUCUCGGUGGGACCUCCA
binding result (ELP1;ELP2;ELP3 wild type): binds

B5: tRNAGlnCUG (structured_RNA)
RNA: GGUUCCAUGGUGUAAUGGUUAGCACUCUGGACUCUGAAUCCAGCGAUCCGAGUUCAAAUCUCGGUGGAACCUCCA
Kd (ELP1;ELP2;ELP3 wild type): 0.118 ± 0.0138 µM

B6: tRNAGln C33C34UG (structured_RNA)
RNA: GGCCCCAUGGUGUAAUGGUUAGCACUCUGGACCCUGAAUCCAGCGAUCCGAGUUCAAAUCUCGGUGGGACCUCCA
binding result (ELP1;ELP2;ELP3 wild type): binds

B7: tRNASerUGA (structured_RNA)
RNA: GCAGCGAUGGCCGAGUGGUUAAGGCGUUGGACUUGAAAUCCAAUGGGGUCUCCCCGCGCAGGUUCGAACCCUGCUCGCUGCGCCA
Kd (ELP1;ELP2;ELP3 wild type; long variable loop): 0.138 ± 0.0105 µM
